20 sequences from the Immune Epitope Database (IEDB) can be followed below.

In one assay the target is HLA-B*40:02. Briefly: IEDB peptide-MHC binding, purified MHC/competitive/radioactivity; filed as Kd, often an IC50 or EC50 that approximates it; ≥ and ≤ were set here for values at or beyond the usual limits of such assays.
The target in a further assay is HLA-B*18:01. The description is as above.
The target in a further assay is HLA-B*45:01. The assay is described as above.
A further assay has as its target HLA-B*44:02. The description is as above.
A further assay has as its target HLA-B*44:03. Described as above.
The target of a further assay is HLA-B*40:01. Described as above.
A further assay concerns the target HLA-A*02:02. Described as above.
The target of assay [1] is HLA-A*02:01. The description is as above.
A further assay has as its target HLA-A*68:02. Described as above.
The next assay concerns the target HLA-A*02:03. The assay is described as above.
The target of another assay is HLA-A*02:06. Described as above.
Assay [2] deals with HLA-A*02:01. Kind of assay: IEDB peptide-MHC binding, purified MHC/competitive/fluorescence; filed as Kd, often an IC50 or EC50 that approximates it; ≥ and ≤ were set here for values at or beyond the usual limits of such assays.
For assay [3], the target named is HLA-B*15:01. Kind of assay: IEDB peptide-MHC binding, purified MHC/competitive/radioactivity; filed as Kd, often an IC50 or EC50 that approximates it; ≥ and ≤ were set here for values at or beyond the usual limits of such assays. The conditions noted are these: source organism: Vaccinia virus WR.
Assay [4] concerns the target HLA-B*15:01. Briefly: IEDB peptide-MHC binding, purified MHC/competitive/fluorescence; filed as Kd, often an IC50 or EC50 that approximates it; ≥ and ≤ were set here for values at or beyond the usual limits of such assays.
The next assay deals with HLA-A*26:01. Described as above. Conditions: source organism: Escherichia coli O139:H28 str. E24377A.
Where [5] appears, read: source organism: SARS coronavirus Tor2.
Where [6] appears, read: source organism: Trypanosoma cruzi.
Setting [7] is: source organism: Mammarenavirus machupoense.
The mark [8] stands for this setting: source organism: Lassa virus Josiah.
Setting [9] is: source organism: Lymphocytic choriomeningitis virus (strain Armstrong).
The mark [10] stands for this setting: source organism: Mammarenavirus lassaense.
[11] abbreviates: source organism: Mammarenavirus juninense.

A word on the Kd: it is the constant that tells how readily two partners part at equilibrium.

CELYHYQECV: the Kd in the assay with HLA-B*40:02 (setting [5]) is 8.2 µM; with HLA-B*18:01 (setting [5]), at least 36.2 µM; in the assay with HLA-B*45:01 (setting [5]), 0.425 µM; with HLA-B*44:02 (setting [5]) it was 7.85 µM; with HLA-B*44:03 (setting [5]) it was 4.2 µM; with HLA-B*40:01 (setting [5]), 1.72 µM.

In the case of FERDISNVPF, the Kd stood at 1.95 µM with HLA-B*40:02 (setting [5]); 0.032 µM with HLA-B*18:01 (setting [5]); 6.4 µM with HLA-B*45:01 (setting [5]); 0.578 µM in the assay with HLA-B*44:02 (setting [5]); 0.629 µM in the assay with HLA-B*44:03 (setting [5]); 0.0203 µM with HLA-B*40:01 (setting [5]).

As to EVLRPTTLV, the Kd with HLA-A*02:02 (setting [6]) worked out at 6.57 µM; in the assay with HLA-A*02:01 [1] (setting [6]) it was 13.7 µM; with HLA-A*68:02 (setting [6]), 0.0068 µM; with HLA-A*02:03 (setting [6]) it was 5.48 µM; with HLA-A*02:06 (setting [6]), 1.46 µM.

As to CEEGKLCYLT, the Kd was 8.09 µM with HLA-B*40:02 (setting [7]); 14.1 µM with HLA-B*18:01 (setting [7]); 1.6 µM in the assay with HLA-B*45:01 (setting [7]); 13.2 µM in the assay with HLA-B*44:02 (setting [7]); 16.2 µM with HLA-B*44:03 (setting [7]); at least 69.5 µM with HLA-B*40:01 (setting [7]).

On to KEKAPDVGVL, for which the Kd with HLA-B*40:02 (setting [7]) is 0.0649 µM; in the assay with HLA-B*18:01 (setting [7]), at least 70.4 µM; with HLA-B*45:01 (setting [7]) it was at least 30.9 µM; in the assay with HLA-B*44:02 (setting [7]) it was 2.41 µM; with HLA-B*44:03 (setting [7]), at least 62.1 µM; with HLA-B*40:01 (setting [7]), 1.05 µM.

As for GILKSILKV, the Kd with HLA-A*02:01 [2] (setting [8]) is 0.0391 µM.

Regarding AEAQMSIQLI, the Kd with HLA-B*40:02 (setting [8]) was 0.0539 µM; with HLA-B*18:01 (setting [8]), at least 23.5 µM; in the assay with HLA-B*45:01 (setting [8]), 0.0789 µM; in the assay with HLA-B*44:02 (setting [8]) it was 0.0346 µM; in the assay with HLA-B*44:03 (setting [8]), 0.0691 µM; with HLA-B*40:01 (setting [8]), 1.3 µM.

As to FENAILSMT, the Kd with HLA-B*40:02 (setting [9]) was found to be 0.0323 µM; with HLA-B*18:01 (setting [9]), 3.3 µM; with HLA-B*45:01 (setting [9]), 1.82 µM; with HLA-B*44:02 (setting [9]), 6.48 µM; in the assay with HLA-B*44:03 (setting [9]), 6.37 µM; with HLA-B*40:01 (setting [9]), 18.4 µM.

Turning to MEVQSLAMST, the dissociation constant (Kd) is at least 20.1 µM with HLA-B*40:02 (setting [5]); 0.969 µM with HLA-B*18:01 (setting [5]); 0.259 µM with HLA-B*45:01 (setting [5]); 7.21 µM with HLA-B*44:02 (setting [5]); 0.951 µM in the assay with HLA-B*44:03 (setting [5]); 2.06 µM with HLA-B*40:01 (setting [5]).

As for SELRPDTRY, the Kd in the assay with HLA-B*40:02 (setting [5]) worked out at 3.14 µM; with HLA-B*18:01 (setting [5]), 11.2 µM; with HLA-B*45:01 (setting [5]), 1.65 µM; with HLA-B*44:02 (setting [5]), 0.52 µM; in the assay with HLA-B*44:03 (setting [5]), 0.714 µM; with HLA-B*40:01 (setting [5]) it was 11.3 µM.

MMKTYIEFV: the dissociation constant Kd with HLA-B*15:01 [3] was 0.17 µM.

Regarding LGLNKIVRMY, the Kd in the assay with HLA-B*15:01 [4] (source organism: Human immunodeficiency virus 1) was determined as 1.96 µM.

As to PLESDAVECL, the Kd is 4.23 µM in the assay with HLA-A*02:02 (source organism: Homo sapiens); at least 63.1 µM with HLA-A*02:01 [1] (source organism: Homo sapiens); at least 65.2 µM in the assay with HLA-A*68:02 (source organism: Homo sapiens); 11.9 µM with HLA-A*02:03 (source organism: Homo sapiens); at least 68.5 µM with HLA-A*02:06 (source organism: Homo sapiens).

TVLEKNVTV came in with a Kd with HLA-A*02:01 [2] (source organism: Influenza A virus (A/Harbin/1/1988(H1N2))) of 0.0058 µM.

Take SEAFLIGANY: the Kd in the assay with HLA-B*40:02 (setting [5]) is 0.348 µM; in the assay with HLA-B*18:01 (setting [5]) it was 0.00442 µM; in the assay with HLA-B*45:01 (setting [5]), 0.578 µM; with HLA-B*44:02 (setting [5]) it was 0.00847 µM; with HLA-B*44:03 (setting [5]), 0.00375 µM; with HLA-B*40:01 (setting [5]), at least 10 µM.

Regarding KENLYIKSI, the Kd is 0.0191 µM with HLA-B*40:02 (setting [10]); at least 28.8 µM with HLA-B*18:01 (setting [10]); 2.15 µM with HLA-B*45:01 (setting [10]); 0.232 µM with HLA-B*44:02 (setting [10]); 0.118 µM with HLA-B*44:03 (setting [10]); 14.2 µM with HLA-B*40:01 (setting [10]).

In the case of SDQKFVDVI, the Kd was 4.43 µM with HLA-B*40:02 (setting [11]); at least 26.3 µM in the assay with HLA-B*18:01 (setting [11]); 16.7 µM in the assay with HLA-B*45:01 (setting [11]); at least 25.4 µM with HLA-B*44:02 (setting [11]); at least 78.1 µM in the assay with HLA-B*44:03 (setting [11]); at least 70.7 µM in the assay with HLA-B*40:01 (setting [11]).

RSSMKLLSY registered a Kd with HLA-B*15:01 [4] (source organism: Yersinia pestis Nepal516) of 0.0886 µM.

As for SEFSSLPSYA, the Kd with HLA-B*40:02 (setting [5]) came out at 0.0224 µM; with HLA-B*18:01 (setting [5]) it was 1.06 µM; with HLA-B*45:01 (setting [5]) it was 0.0253 µM; with HLA-B*44:02 (setting [5]), 0.343 µM; with HLA-B*44:03 (setting [5]), 0.0131 µM; in the assay with HLA-B*40:01 (setting [5]), 0.431 µM.

DICSGLQQL: in the assay with HLA-A*26:01, the equilibrium dissociation constant (Kd) is at least 20 µM.
